Experimental data as given in the supplement of paper PMC12042874.
± gives the uncertainty stated by the source.

Assay: amyloid nucleation score (Sup35N fusion, yeast selection) (log enrichment); library NNK3; higher = more nucleation; inactive = no reads after selection
In short: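 Yeast lacking psi expressed peptides of 20 random codons fused to Sup35N, received 100 μM copper sulfate for 24 hours, and were then grown for 7 days at 30°C on medium lacking adenine and uracil. Illumina sequencing of input and output plasmid inserts provided the reads. Nucleation scores are DiMSum log enrichments of output over input, centred on the mode of non-aggregating sequences. Any sequence with under 100 input reads was excluded.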

Row | Substance | amyloid nucleation score
1 | LEWRMNVLMLFRNVMVHIAS | inactive
2 | QWMQRTW | inactive
3 | ASSSQGRDYVCMSYNFIGGV | -0.551 ± 0.55
4 | RPTGYQVTYEMRRSGG | inactive
5 | THGREGYASSSSSLGPGSIS | -0.08 ± 0.44
6 | VRESAWGLYNRYFSVFSAVV | inactive
7 | VGNLGS | inactive
8 | MYVTIGASNKSYRLLFVARW | -0.368 ± 0.75
9 | HFMFGYGCTRSGQTRSPGFN | 1.88 ± 0.11
10 | FWTCTSSPVLMRWRRSGFNV | inactive
11 | SLWSVEDSGYKC | inactive
12 | NFYRCGVWHLNWYEYDVLRL | inactive
13 | WVSSDRHSSLVNWKHGLSQE | inactive
14 | LVFSRACTLVDTIE | inactive
15 | GCNEHI | inactive
16 | VWLRGFQLGMDDFLWRVSGC | inactive
17 | GKARQSLHIGSSLLTFMA | inactive
18 | YYHLGLLDVSINEIRT | inactive
19 | GCKYSATTAHCADKSVPVTG | inactive
20 | KRYYYCHGSSL | inactive
21 | AVQYPSVCWNYKSNSMHC | inactive
22 | VCTKWGQYFCPYPVLCGWVR | inactive
23 | VMRGASYFPTELADDDLMPG | inactive
24 | LVVCYGNWMRLVGIFINGNS | inactive
25 | LSVANQNCVKLDIVHM | inactive
26 | VDYKLFNFDGVCITTVFVHY | 2.24 ± 0.095
27 | FPGVLSLRYYLLRMRTQ | inactive

Row | Substance | amyloid nucleation score
28 | FHSQYEGAEERSPRNVLMAR | inactive
29 | FCRMVPLIEWSVTRFRDCVG | inactive
30 | YLMYSVESVRWTLIE | inactive
31 | AIGYLCSALAKVSLFGKWSV | inactive
32 | SLLYEEPEVLINNSSGSAS | inactive
33 | LIAFA | 2.53 ± 0.069
34 | MRELQENVNDDS | inactive
35 | PVRIEYQ | inactive
36 | NDLSGKTCNGRRVEDRAPMA | -0.114 ± 0.44
37 | RLANKFSMTSGT | inactive
38 | CGLDSCLVICQYK | 0.584 ± 0.28
39 | ACLCNNCLSLNPTWSCFLCL | 2.41 ± 0.087
40 | VLRQDISDDQSEAPEMNPHR | inactive
41 | TSLEN | inactive
42 | NDTWCVLFRTPKLLCMSVFT | inactive
43 | SRSPNFQKFLHCMTTSN | inactive
44 | IFSFTLSLSFGVFLNMFSVD | inactive
45 | GSNFICTFRVGKGYRPVCLE | inactive
46 | AYIMDSSWWV | inactive
47 | SRGEKNSNFTWTNDFDFFRV | inactive
48 | TKTHCFLLLSGVCVGRVLGW | inactive
49 | SYYMTKLVFLCPLW | inactive
50 | VNLITREHLKKGSMNNFIAN | inactive
51 | YRLSLRH | inactive
52 | RWPLMMTFSATIVGYTVVWA | inactive
53 | WACIQK | inactive
54 | FIILQFVGFLHNTGFWYQLG | 0.217 ± 0.25

Row | Substance | amyloid nucleation score
55 | LPYTVQAVVIRVDKSYVSSV | inactive
56 | RSQSVQKIEATLSLLIGAPK | inactive
57 | MSLIRYKLG | inactive
58 | VGEVGGYGEFAE | inactive
59 | PRFYANRFTVLFLYNLDI | -0.227 ± 1.1
60 | LAPGRLCLMGIKRTTSWWSS | inactive
61 | TTNSQAWPMLTAVRLVYNEG | inactive
62 | TNVTANGVKPHPYPMRSPAT | inactive
63 | VLANGKTSELRELKVHLLAG | -0.274 ± 1.1
64 | VRSARRQAGELEGFYCLYQV | inactive
65 | TWDICFSTLFLMPRMWFGHL | inactive
66 | QSFLDTSPHLDHVVNNSIKH | inactive
67 | SHRGDAVLVFCLVCLVILDG | inactive
68 | YLCYMEYVH | inactive
69 | GSRLSIQTFMTS | inactive
70 | LVCMEISSNFLATVCVEWIG | inactive
71 | VARIIYQRIW | inactive
72 | TCGINYRGYEDPRPCRGTEI | inactive
73 | NSISSSRIAVNFAKYGNWDV | inactive
74 | ERMQHGSLSVRYFKKSSVSG | inactive
75 | RDIVVNRLVRACSLGFLCLG | -0.792 ± 1.4
76 | SSGLICF | inactive
77 | HSFIDERWSLYYERVLVYTG | inactive
78 | LVLLHVLGERSSAPRRTVMR | inactive
79 | VQYNHLRVVSHDVNENGEPR | inactive
80 | IIEPYTFCFRICVWGGEWIV | inactive
